The results in this text go back to article PMC12362812.

In this assay the target is NUP93 (nucleoporin 93) (UniProt Q8N1F7). In words: co-immunoprecipitation, Western blot. The following applies: reference: wild-type β-catenin; sites S191.

With “β‐catenin (from UniProt P35222) β-catenin S191 mutant (S191A)”, the “binding against the reference” value was “weaker”.
